Measurements reported in PMC3722562.

Columns and labels:
[1] = molecular target: PSMA on PC3(PSMA+) cells (human?) (UniProt Q04609); test: NIR cell uptake (QUSIM); settings: 10 nM, 15 min, 37 C, trypsin wash, 2'-fluoro pyrimidines, Cell assays mostly in DPBS at 37 C (4 C for surface binding), washes DPBS, 0.5 M NaCl +/- 0.2 N acetic acid or trypsin, Qdot flow after 10% FBS/DPBS block …
[2] = molecular target: HER2-GST fusion (human) (UniProt P04626); test: not stated (cited); settings: 2'-fluoro pyrimidines (general statement); Cell assays mostly in DPBS at 37 C (4 C for surface binding), washes DPBS, 0.5 M NaCl +/- 0.2 N acetic acid or trypsin; Qdot flow after 10% FBS/DPBS block …; cited from earlier work
[3] = molecular target: PSMA (prostate specific membrane antigen) (human) (UniProt Q04609); test: not stated (cited); settings: 2'-fluoro pyrimidines; Cell assays mostly in DPBS at 37 C (4 C for surface binding), washes DPBS, 0.5 M NaCl +/- 0.2 N acetic acid or trypsin; Qdot flow after 10% FBS/DPBS block …; cited from earlier work
[4] = molecular target: TrkB (mouse) (mouse) (UniProt P15209); test: not stated (cited); settings: 2'-fluoro pyrimidines; Cell assays mostly in DPBS at 37 C (4 C for surface binding), washes DPBS, 0.5 M NaCl +/- 0.2 N acetic acid or trypsin; Qdot flow after 10% FBS/DPBS block …; cited from earlier work
[5] = molecular target: HER2 (rat) (rat) (UniProt P06494); test: not stated (cited); settings: 2'-fluoro pyrimidines; Cell assays mostly in DPBS at 37 C (4 C for surface binding), washes DPBS, 0.5 M NaCl +/- 0.2 N acetic acid or trypsin; Qdot flow after 10% FBS/DPBS block …; cited from earlier work
Sequence of HER2 (rat) (rat) (P06494 whole entry): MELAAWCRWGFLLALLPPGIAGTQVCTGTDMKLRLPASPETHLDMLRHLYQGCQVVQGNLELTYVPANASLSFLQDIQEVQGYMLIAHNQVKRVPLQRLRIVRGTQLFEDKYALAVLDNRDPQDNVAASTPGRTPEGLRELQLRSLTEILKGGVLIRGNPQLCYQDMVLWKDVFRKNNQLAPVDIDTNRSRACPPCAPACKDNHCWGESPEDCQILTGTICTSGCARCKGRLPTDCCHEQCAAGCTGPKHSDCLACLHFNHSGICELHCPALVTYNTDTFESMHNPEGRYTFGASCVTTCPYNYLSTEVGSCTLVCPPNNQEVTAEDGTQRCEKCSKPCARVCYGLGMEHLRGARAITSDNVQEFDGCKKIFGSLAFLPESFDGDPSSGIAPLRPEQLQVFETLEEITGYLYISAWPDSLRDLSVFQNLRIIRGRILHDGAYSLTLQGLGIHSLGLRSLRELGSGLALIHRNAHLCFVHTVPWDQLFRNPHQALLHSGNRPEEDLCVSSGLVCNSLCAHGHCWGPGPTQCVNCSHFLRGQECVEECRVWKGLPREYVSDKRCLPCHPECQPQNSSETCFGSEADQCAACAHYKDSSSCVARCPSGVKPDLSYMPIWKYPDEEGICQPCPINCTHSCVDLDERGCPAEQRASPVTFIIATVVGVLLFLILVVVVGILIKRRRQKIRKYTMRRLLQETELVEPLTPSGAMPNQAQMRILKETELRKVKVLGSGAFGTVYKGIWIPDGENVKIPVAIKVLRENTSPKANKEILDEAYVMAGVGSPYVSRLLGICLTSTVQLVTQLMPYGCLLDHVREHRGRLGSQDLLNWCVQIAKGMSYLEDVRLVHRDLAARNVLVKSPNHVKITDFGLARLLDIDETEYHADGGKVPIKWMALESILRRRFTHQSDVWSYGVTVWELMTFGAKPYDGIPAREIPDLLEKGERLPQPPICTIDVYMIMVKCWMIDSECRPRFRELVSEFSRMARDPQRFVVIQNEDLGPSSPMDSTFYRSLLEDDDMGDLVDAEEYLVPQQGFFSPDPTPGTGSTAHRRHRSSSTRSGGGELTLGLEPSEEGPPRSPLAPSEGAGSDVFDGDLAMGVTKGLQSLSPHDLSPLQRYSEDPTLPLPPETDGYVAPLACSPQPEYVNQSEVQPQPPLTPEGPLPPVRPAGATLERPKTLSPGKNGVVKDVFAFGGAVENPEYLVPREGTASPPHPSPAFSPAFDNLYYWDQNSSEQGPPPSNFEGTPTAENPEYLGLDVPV

Sequence of PSMA on PC3(PSMA+) cells (human?) (Q04609 whole entry, the tested form may be a part): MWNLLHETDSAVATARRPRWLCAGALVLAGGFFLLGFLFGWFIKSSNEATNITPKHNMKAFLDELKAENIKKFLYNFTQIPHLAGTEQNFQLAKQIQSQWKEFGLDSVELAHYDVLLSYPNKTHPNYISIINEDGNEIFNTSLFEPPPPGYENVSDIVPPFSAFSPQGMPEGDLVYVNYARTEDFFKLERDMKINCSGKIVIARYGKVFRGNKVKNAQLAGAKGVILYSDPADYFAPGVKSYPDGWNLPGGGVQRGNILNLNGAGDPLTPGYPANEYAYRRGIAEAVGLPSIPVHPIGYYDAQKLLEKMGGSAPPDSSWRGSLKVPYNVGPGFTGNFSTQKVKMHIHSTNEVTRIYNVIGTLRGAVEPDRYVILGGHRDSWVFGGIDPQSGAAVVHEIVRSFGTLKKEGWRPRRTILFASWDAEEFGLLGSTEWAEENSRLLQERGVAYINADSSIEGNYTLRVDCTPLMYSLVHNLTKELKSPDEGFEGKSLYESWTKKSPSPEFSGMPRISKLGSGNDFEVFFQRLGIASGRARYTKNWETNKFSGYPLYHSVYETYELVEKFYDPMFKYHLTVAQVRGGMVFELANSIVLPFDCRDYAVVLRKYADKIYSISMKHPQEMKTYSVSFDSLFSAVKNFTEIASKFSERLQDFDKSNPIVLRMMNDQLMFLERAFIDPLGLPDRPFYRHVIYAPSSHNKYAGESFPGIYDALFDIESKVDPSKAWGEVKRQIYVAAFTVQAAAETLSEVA
Sequence of TrkB (mouse) (mouse) (P15209 whole entry): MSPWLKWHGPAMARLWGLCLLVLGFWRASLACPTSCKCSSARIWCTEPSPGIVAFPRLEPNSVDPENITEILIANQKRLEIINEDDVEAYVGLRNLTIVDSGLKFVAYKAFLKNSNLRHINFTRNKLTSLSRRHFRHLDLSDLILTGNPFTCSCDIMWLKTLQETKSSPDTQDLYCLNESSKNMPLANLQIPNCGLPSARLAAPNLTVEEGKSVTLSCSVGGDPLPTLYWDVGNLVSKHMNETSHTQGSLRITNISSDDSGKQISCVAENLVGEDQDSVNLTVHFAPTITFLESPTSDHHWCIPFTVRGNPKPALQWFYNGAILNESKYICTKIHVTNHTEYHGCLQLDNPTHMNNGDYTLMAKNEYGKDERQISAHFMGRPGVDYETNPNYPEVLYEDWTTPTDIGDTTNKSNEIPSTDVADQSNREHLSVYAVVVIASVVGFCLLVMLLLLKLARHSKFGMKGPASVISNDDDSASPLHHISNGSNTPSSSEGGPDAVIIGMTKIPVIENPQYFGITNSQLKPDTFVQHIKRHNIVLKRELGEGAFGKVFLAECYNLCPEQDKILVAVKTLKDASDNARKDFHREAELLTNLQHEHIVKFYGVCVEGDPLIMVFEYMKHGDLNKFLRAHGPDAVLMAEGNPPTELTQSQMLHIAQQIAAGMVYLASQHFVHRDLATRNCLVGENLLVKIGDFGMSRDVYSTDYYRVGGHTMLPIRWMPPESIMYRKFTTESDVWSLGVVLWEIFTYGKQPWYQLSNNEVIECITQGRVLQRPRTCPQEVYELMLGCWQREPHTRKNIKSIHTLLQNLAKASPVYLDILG
Sequence of PSMA (prostate specific membrane antigen) (human) (Q04609 whole entry): as the sequence (Q04609 whole entry, the tested form may be a part) above

GGGACCGAAAAAGACCUGGCUUCUAUACUAAGUCUACGUUCCC [A9g.6]
binding signal (% of input internalized) [1]: < 0.5

AGCCGCGAGGGGAGGGAUAGGGUAGGGCGCGGCU [hHER2-apt]
Kd [2]: 3.5 nM

GGGACCGAAAAAGACCUGACUUCUAUACUAAGUCUACGUUCCC [A9g]
binding signal (% of input internalized) ([1]; <1% in PSMA- cells): 13 | Kd [3]: 5 nM

GGGAGGACGAUGCGGUCGUAUUAUCCGCUGCACGCCAGACGACUCGCCCGA [C4-3]
Kd [4]: 2 nM

GGGAGGACGAUGCGGUCCUGUCGUCUGUUCGUCCCCAGACGACUCGCCCGA [E1]
Kd [5]: 60.8 nM
